Laboratory results: patent US20180214476

Test system: T1, thrombin cleavable peptide GGLVPRGSGGC
T1 sequence: GGLVPRGSGGC

thrombin
cleavage of the peptide by thrombin, LCMS analysis: the peptides were efficiently cleaved after 12 h incubation with 1 U mL^-1 thrombin in Tris buffer
